One block for each substance: values may come before it.
Key:
[1] = biological target: His-Flag-NDP52 C18, 153, 163, 321S (human) (UniProt Q13137); assay: native gel or EMSA; blue native PAGE of lysates (30 μg; 20 mM Bis-Tris pH 7.2, 40 mM NaCl, 10% glycerol, 0.5% NP-40) of HeLa PentaKO cells stably expressing NDP52 WT or Mut, immunoblot
[2] = biological target: untagged NDP52 C18, 153, 163, 321S mutant (human) (UniProt Q13137); assay: native gel or EMSA; blue native PAGE (4–16% NativePAGE gel, Coomassie G-250) of recombinant NDP52 WT and Mut, immunoblot
FIP200-GFP = assay: bead recruitment assay (confocal imaging of FIP200-GFP on beads); conditions: glutathione Sepharose beads coated with GST-4xUb, incubated with untagged NDP52 and FIP200-GFP; read off a plot

- stoichiometry N [1]: 2
Substance: His-Flag-NDP52 C18, 153, 163, 321S (from UniProt Q13137 1-446) (natural protein)

- stoichiometry N [2]: 2
Substance: untagged NDP52 C18, 153, 163, 321S mutant (from UniProt Q13137 1-446) (natural protein)

- percent of parent (FIP200-GFP): 93%
Substance: untagged NDP52 wild type mutant C18S; C153S; C163S; C321S [human] / FIP200-GFP [not stated] chain 1 C18S, chain 1 C153S, chain 1 C163S, chain 1 C321S

— PMC9975939
